Source: US20250092426, “CAS ENDONUCLEASES AND RELATED METHODS” (Flagship Pioneering Innovations VII, LLC, published 2025)

Target: T1, CasEnd-9 (synthetic construct)
T1 chain: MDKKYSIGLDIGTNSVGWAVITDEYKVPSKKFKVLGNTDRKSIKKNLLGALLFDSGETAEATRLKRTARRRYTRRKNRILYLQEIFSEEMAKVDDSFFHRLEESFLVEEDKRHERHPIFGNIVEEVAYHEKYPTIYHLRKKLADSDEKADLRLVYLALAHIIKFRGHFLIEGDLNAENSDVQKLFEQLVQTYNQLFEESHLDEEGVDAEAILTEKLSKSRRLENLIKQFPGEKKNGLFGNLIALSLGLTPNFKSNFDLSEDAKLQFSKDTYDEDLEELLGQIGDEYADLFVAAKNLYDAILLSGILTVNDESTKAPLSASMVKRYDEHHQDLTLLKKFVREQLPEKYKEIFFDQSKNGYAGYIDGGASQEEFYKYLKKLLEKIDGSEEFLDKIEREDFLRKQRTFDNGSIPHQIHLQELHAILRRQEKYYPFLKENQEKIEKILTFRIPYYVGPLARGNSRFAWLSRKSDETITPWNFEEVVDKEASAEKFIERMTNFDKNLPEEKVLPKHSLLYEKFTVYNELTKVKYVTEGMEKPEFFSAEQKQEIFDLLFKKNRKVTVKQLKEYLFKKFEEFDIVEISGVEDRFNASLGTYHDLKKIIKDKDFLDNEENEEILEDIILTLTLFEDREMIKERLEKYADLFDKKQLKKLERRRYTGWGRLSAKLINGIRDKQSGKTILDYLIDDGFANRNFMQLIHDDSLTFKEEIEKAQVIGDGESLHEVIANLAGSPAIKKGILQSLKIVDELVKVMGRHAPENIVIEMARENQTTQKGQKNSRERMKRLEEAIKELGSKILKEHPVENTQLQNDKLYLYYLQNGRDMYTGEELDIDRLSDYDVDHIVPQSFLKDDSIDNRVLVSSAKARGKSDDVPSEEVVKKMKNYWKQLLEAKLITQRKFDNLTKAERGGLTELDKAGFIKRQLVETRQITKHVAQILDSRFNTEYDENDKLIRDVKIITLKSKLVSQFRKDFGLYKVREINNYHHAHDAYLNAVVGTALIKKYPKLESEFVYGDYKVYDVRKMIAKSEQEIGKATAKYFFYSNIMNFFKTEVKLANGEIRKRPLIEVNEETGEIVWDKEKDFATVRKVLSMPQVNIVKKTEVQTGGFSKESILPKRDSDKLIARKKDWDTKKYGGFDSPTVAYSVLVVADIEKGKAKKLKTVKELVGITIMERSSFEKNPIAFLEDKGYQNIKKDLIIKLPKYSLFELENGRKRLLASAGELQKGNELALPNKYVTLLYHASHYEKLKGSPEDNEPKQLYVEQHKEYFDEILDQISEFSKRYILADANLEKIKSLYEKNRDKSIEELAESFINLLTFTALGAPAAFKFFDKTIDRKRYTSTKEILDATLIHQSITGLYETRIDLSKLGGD
Assay: cell_activity; +++; HEK293T; PAM not stated
Method in brief: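 Editing activity was scored as the fraction of GFP+ cells on day 4 by flow cytometry. BFP-expressing HEK293T cells (250,000) received by nucleofection 200 ng plasmid for the RT-Cas fusion protein and 200 ng template RNA plasmid designed to convert BFP to GFP.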

B1: BFP-to-GFP template RNA ; BFP reporter protospacer (ssRNA ; dsDNA)
RNA: GCCGAAGCACUGCACGCCGUGUUUUAGAGCUAGAAAUAGCAAGUUAAAAUAAGGCUAGUCCGUUAUCAACUUGAAAAAGUGGCACCGAGUCGGUGCACCCUGACGUACGGCGUGCAGUGCUU
DNA 1: GCCGAAGCACTGCACGCCGT
DNA 2: ACGGCGTGCAGTGCTTCGGC
activity: ≥ 100 % of reference
